Data: patent US20250215104A1 (WALDEN BIOSCIENCES, published 2025)
Substitutions are numbered along the chain they refer to.

B1: suPAR_DB04_H09 (scFv, V domains shown)
VH: QVQLVQSGAEVKKPGASVKVSCKASGGTFSGYYMHWVRQAPGQGLEWVGWITPDSGATAYAQKFQGRVTMTRDTSTSTVYMELSSLRSEDTAVYYCARGYDVDWFVYWGQGTLVTVSS
VL: DIQMTQSPSSLSASVGDRVTITCSARQSVSYMYWYQQKPGKAPKLLIYRTSNLASGVPSRFSGSGSGTDFTLTISSLQPEDFATYYCQQYHSYPPTFGGGTKVEIK
notes: Screened as scFv
B2: suPAR_DB04_H10 (scFv, V domains shown)
VH: B1 VH with G27Y, S30T, G31S, V48M, T52S, A57G, A59N
VL: B1 VL with S24R, Q27S
notes: Screened as scFv
B3: suPAR_DB05_A05 (scFv, V domains shown)
VH: B1 VH with G27Y, S30T, G31N, V48M, T52D, D54S, S55G, A57S, A59S
VL: B1 VL with S24R
notes: Screened as scFv
B4: suPAR_DB05_A06 (scFv, V domains shown)
VH: QVQLVQSGAEVKKPGASVKVSCKASGYTFTSHYVHWVRQAPGQGLEWMGWIDHENGNTIYDQKFQGRVTMTRDTSTSTVYMELSSLRSEDTAVYYCARGYDVDWFVYWGQGTLVTVSS
VL: B1 VL with Q27S
notes: Screened as scFv
B5: suPAR_DB05_A07 (scFv, V domains shown)
VH: B4 VH with S31N, H32Y, V34M, H35Q, D61A
VL: B1 VL
notes: Screened as scFv
B6: suPAR_DB05_A08 (scFv, V domains shown)
VH: B1 VH with G27Y, S30T, G31N, V48M, T52D, P53S, D54N, A57G, A59N
VL: B1 VL with Q27S
notes: Screened as scFv
B7: suPAR_DB05_A10 (scFv, V domains shown)
VH: B4 VH with S31N, H32Y, V34I, H53P, E54S
VL: B1 VL with Q27S
notes: Screened as scFv
B8: suPAR_DB05_A11 (scFv, V domains shown)
VH: B1 VH with G27Y, S30T, V48M, T52D, D54N, A57G, A59N
VL: B1 VL with Q27S
notes: Screened as scFv
B9: suPAR_DB05_B01 (scFv, V domains shown)
VH: B4 VH with T28P, H32Y, V34M
VL: B1 VL with R26S, Q27S
notes: Screened as scFv
B10: suPAR_DB05_B02 (scFv, V domains shown)
VH: B4 VH with F29I, T30K, S31D, H32Y, V34I, H53P, D61A
VL: B1 VL with Q27S
notes: Screened as scFv
B11: suPAR_DB05_B03 (scFv, V domains shown)
VH: B1 VH with G27Y, S30T, G31S, M34I, V48I, I51M, T52D, D54N, A57S, T58A
VL: B1 VL with Q27S
notes: Screened as scFv
B12: suPAR_DB05_B04 (scFv, V domains shown)
VH: B4 VH with S31T, H32Y, V34M, H53P, E54S
VL: B1 VL with Q27S
notes: Screened as scFv
B13: suPAR_DB05_B05 (scFv, V domains shown)
VH: B4 VH with Y27N, T30S, S31G, H32Y, H53P, E54S
VL: B1 VL with Q27S
notes: Screened as scFv
B14: suPAR_DB05_B06 (scFv, V domains shown)
VH: B4 VH with T28P, S31N, H32Y, V34M, N55G, N57S
VL: B1 VL with R26S
notes: Screened as scFv
B15: suPAR_DB05_B08 (scFv, V domains shown)
VH: B4 VH with Y27N, T28A, T30S, S31G, D61A
VL: B1 VL
notes: Screened as scFv
B16: suPAR_DB05_B09 (scFv, V domains shown)
VH: B4 VH with S31G, H32Y, V34M, H53P, E54S, N55G
VL: B1 VL with Q27S
notes: Screened as scFv
B17: suPAR_DB05_B11 (scFv, V domains shown)
VH: B4 VH with T30S, S31A, H32Y, V34M, D61A
VL: B1 VL with Q27S
notes: Screened as scFv
B18: suPAR_DB05_C02 (scFv, V domains shown)
VH: B4 VH with Y27D, H32Y, V34M, H53P, E54S
VL: B1 VL with Q27S
notes: Screened as scFv
B19: suPAR_DB05_C03 (scFv, V domains shown)
VH: B4 VH with S31N, H32Y, V34M, N55G, I59S, D61A
VL: B1 VL with S24R, Q27S
notes: Screened as scFv
B20: suPAR_DB05_C04 (scFv, V domains shown)
VH: B4 VH with Y27F, T28N, F29I, T30K, S31D, H32Y, V34I, H53P
VL: B1 VL with A54Q
notes: Screened as scFv
B21: suPAR_DB05_C05 (scFv, V domains shown)
VH: QVQLVQSGAEVKKPGASVKVSCKASGYNIKSYYIHWVRQAPGQGLEWMGWIDPNSGGTNYAQNFQGRVTMTRDTSTSTVYMELSSLRSEDTAVYYCARGYDVDWFVYWGQGTLVTVSS
VL: B1 VL with Q27S
notes: Screened as scFv
B22: suPAR_DB05_C06 (scFv, V domains shown)
VH: B21 VH with Y27F, N63K
VL: B1 VL with Q27S
notes: Screened as scFv
B23: suPAR_DB05_C07 (scFv, V domains shown)
VH: B4 VH with N55G, N57S, I59S
VL: B1 VL with S24R
notes: Screened as scFv
B24: suPAR_DB05_C08 (scFv, V domains shown)
VH: B4 VH with H32Y, V34M, H53P
VL: B1 VL with S24R
notes: Screened as scFv
B25: suPAR_DB05_C09 (scFv, V domains shown)
VH: B1 VH with G27Y, S30T, V48M, T52S, A59K, Y60V
VL: B1 VL with Q27S
notes: Screened as scFv
B26: suPAR_DB05_C11 (scFv, V domains shown)
VH: B21 VH with N28I, I29F, K30T, I34M, N54Y, G57A, N63K
VL: B1 VL with S24R, Q27S, V29I
notes: Screened as scFv
B27: suPAR_DB05_D01 (scFv, V domains shown)
VH: B4 VH with Y27H, F29S, S31N, H32Y, V34M, N55G, I59S
VL: B1 VL with Q27S
notes: Screened as scFv
B28: suPAR_DB05_D02 (scFv, V domains shown)
VH: B4 VH with F29I, S31G, H32N, V34M, N57S
VL: B1 VL with V29I
notes: Screened as scFv
B29: suPAR_DB05_D03 (scFv, V domains shown)
VH: B4 VH with T30G, S31N, H32Y, V34M, D61A, Y100N
VL: B1 VL with Q27S
notes: Screened as scFv
B30: suPAR_DB05_D05 (scFv, V domains shown)
VH: B4 VH with S31N, H32Y, V34M, E54S, N57S
VL: B1 VL with S24R
notes: Screened as scFv

Each binder was assayed against T1, human soluble urokinase plasminogen activator receptor (suPAR) (human, UniProt Q03405 23-303, limits assumed) (assay: BLI (Octet) off-rate screen of scFv clones).
T1 construct: Column head says only 'human'; also called hsuPAR; human suPAR
T1 sequence (Q03405 23-303 limits assumed): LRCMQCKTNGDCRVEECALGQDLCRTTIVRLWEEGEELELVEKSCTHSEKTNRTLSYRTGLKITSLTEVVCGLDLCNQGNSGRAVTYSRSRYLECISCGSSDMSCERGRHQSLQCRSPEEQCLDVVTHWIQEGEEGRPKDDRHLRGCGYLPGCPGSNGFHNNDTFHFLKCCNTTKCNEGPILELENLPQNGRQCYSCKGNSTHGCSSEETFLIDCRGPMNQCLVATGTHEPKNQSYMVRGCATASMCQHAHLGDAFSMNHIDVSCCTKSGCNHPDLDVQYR

| Binder | koff [s⁻¹] |
| --- | --- |
| B1 | 0.00475 |
| B2 | 0.00354 |
| B3 | 0.00553 |
| B4 | 0.00352 |
| B5 | 0.00495 |
| B6 | 0.00307 |
| B7 | 0.00541 |
| B8 | 0.0018 |
| B9 | 0.00356 |
| B10 | 0.00565 |
| B11 | 0.00366 |
| B12 | 0.00623 |
| B13 | 0.00417 |
| B14 | 0.00213 |
| B15 | 0.00488 |
| B16 | 0.00273 |
| B17 | 0.00219 |
| B18 | 0.00375 |
| B19 | 0.00367 |
| B20 | 0.00452 |
| B21 | 0.00547 |
| B22 | 0.00507 |
| B23 | 0.00431 |
| B24 | 0.00284 |
| B25 | 0.00384 |
| B26 | 0.00335 |
| B27 | 0.00533 |
| B28 | 0.00116 |
| B29 | 0.00345 |
| B30 | 0.001 |

The binders below were run against T2, cynomolgus soluble urokinase plasminogen activator receptor (suPAR) (cynomolgus, UniProt Q9GK78 23-303, limits assumed) (assay: BLI (Octet) off-rate screen of scFv clones).
T2 construct: Column head says only 'cynomologus'; also called cynomolgus suPAR; cynomolgus uPAR
T2 sequence (Q9GK78 23-303 limits assumed): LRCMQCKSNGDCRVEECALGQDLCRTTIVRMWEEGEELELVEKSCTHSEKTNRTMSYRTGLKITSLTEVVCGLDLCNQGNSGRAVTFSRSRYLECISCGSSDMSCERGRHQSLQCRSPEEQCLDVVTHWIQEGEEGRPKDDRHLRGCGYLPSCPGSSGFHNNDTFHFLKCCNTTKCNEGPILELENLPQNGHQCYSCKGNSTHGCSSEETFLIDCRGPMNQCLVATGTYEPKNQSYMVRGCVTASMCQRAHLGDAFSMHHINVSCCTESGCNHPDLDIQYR

| Binder | koff [s⁻¹] |
| --- | --- |
| B1 | 8.8e-05 |
| B2 | 0.000323 |
| B3 | 0.000639 |
| B4 | 0.000277 |
| B5 | 0.00029 |
| B6 | 9.8e-05 |
| B7 | 0.000462 |
| B8 | 0.000311 |
| B9 | 0.000232 |
| B10 | 0.000419 |
| B11 | 0.000311 |
| B12 | 0.000606 |
| B13 | 0.000193 |
| B14 | 0.000234 |
| B15 | 0.000129 |
| B16 | 0.000583 |
| B17 | 0.000431 |
| B18 | 0.00061 |
| B19 | 0.000455 |
| B20 | 0.000457 |
| B21 | 0.000202 |
| B22 | 0.000123 |
| B23 | 0.000237 |
| B24 | 0.000548 |
| B25 | 0.000464 |
| B26 | 0.000168 |
| B27 | 0.000315 |
| B28 | 0.000435 |
| B29 | 0.00124 |
| B30 | 0.000669 |
